Assays:
[1] = target: therapeutic human IgG1 (Bristol-Myers Squibb) (human); assay: affinity precipitation: 5 mM C12-Z33 + 20 µM IgG1, 0.6 M Na2SO4, centrifugation, A280 of supernatant
[2] = target: therapeutic human IgG1 (Bristol-Myers Squibb) (human); assay: ITC, 15 C, PBS pH 7.4, reported per IgG1
[3] = target: therapeutic human IgG1 (Bristol-Myers Squibb) (human); assay: ITC, 15 C, PBS pH 7.4, reported per ligand

Substance: C12-Z33 immuno-amphiphile (peptide)
- percent IgG1 removed from the supernatant [1]: > 60%

Substance: Z33 peptide
- -TΔS° (kcal · mol^-1) [2]: 43.4
- ΔG° (kcal · mol^-1) [2]: -10
- ΔH° (kcal · mol^-1) [2]: -53.4
- -TΔS° (kcal · mol^-1) [3]: 13.6
- Kd [3]: 60 nM
- ΔG° (kcal · mol^-1) [3]: -9.5
- ΔH° (kcal · mol^-1) [3]: -23.1

Source: patent US20200062827A1
